Source: article PMC2764455

Columns and labels:
bPrP peptide 16 = molecular target: T1, bPrP peptide 16 (bovine, UniProt P10279 108-119); experiment: microchip electrophoresis
T1 chain: GQWNKPSKPKTN

bPrP peptide 1 = molecular target: T2, bPrP peptide 1 (bovine, UniProt P10279 25-36); experiment: microchip electrophoresis
T2 chain: KKRPKPGGGWNT

## GGAGGAGGAGGA (structured_RNA) [R12]
bPrP peptide 16
  binding result: binds
bPrP peptide 1
  binding result: binds
